Square brackets hold non-standard residues; d marks the D form. Ends that are not written are not given here.
Assays:
[1] = biological target: mouse plasma proteins (CD-1 mouse); assay: plasma protein binding, dialysis 4 h at 37 C, 2 µM, LC-MS/MS; control
human plasma proteins = assay: as above
[2] = biological target: Human FOLR1 on OVCAR3 cells (human) (UniProt P15328); assay: flow cytometry on OVCAR3 cells after 1 h at 37 C, after acid wash (internalized fraction)
[3] = biological target: Human FOLR1 on OVCAR3 cells (human) (UniProt P15328); assay: flow cytometry on OVCAR3 cells after 1 h at 37 C, before acid wash
[4] = biological target: T1, Folate-hshta-Lys(IPBA)-M-V-Lys(DOTA) (compound #1306) (not fully specified)
T1 chain: HSHTAKMVK

[5] = biological target: T2, Folate-hshta-Lys(IPBA)-Gly-Phe-Lys(DOTA) (compound #1307) (not fully specified)
T2 chain: HSHTAKGFK

[6] = biological target: T3, Fol-hshta-PEG3-Gly-Phe-Lys(DOTA) (compound #6307)
T3 chain: HSHTAGFK

[7] = biological target: T4, Fol-hshta-Lys(4-MPBA)-Gly-Phe-Lys(AO) (compound #3304)
T4 chain: HSHTAKGFK

[8] = biological target: T5, Folate-hshta-PEG3-Lys(MPBA)-Lys(DOTA) (compound #2809) (not fully specified)
T5 chain: HSHTAKK

[9] = biological target: T6, Folate-hshta-Lys(MPBA)-Gly-Phe-Lys(DOTA) (compound #6305) (not fully specified)
T6 chain: HSHTAKGFK

[10] = biological target: T7, Fol-hshta-Lys(4-MPBA)-Gly-Phe-Lys(PEG3-DOTA) (compound #3302) (not fully specified)
T7 chain: HSHTAKGFK

[11] = biological target: T8, Folate-hshta-G-F-K(DOTA)-OH (Indi 7327, compound #7327) (not fully specified)
T8 chain: HSHTAGFK

[12] = biological target: T9, Fol-hshta-PEG3-Lys(DOTA) (compound #1189) (not fully specified)
T9 chain: HSHTAK

[13] = biological target: T10, Fol-hshta-Gly-Phe-Lys(AO) (compound #3303) (not fully specified)
T10 chain: HSHTAGFK

Chain of Human FOLR1 on OVCAR3 cells (human) (P15328 25-234 limits assumed): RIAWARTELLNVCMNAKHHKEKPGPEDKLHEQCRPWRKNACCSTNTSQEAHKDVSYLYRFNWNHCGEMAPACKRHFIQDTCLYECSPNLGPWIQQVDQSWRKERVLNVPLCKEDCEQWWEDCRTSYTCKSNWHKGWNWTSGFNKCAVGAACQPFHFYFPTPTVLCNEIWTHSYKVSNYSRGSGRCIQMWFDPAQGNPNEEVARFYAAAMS

## Octreotide Acetate (peptide)
[1]
  Plasma % Bound: 62.4%
Human plasma proteins
  Plasma % Bound: 59.4%

B1: DyLight650-labeled folate-hshta Nterm heterobiligand (peptide)
peptide: folate-[dH][dS][dH][dT][dA]
modifications: also: triazole macrocycle via Pra and Az4, places not given here, DyLight 650 label, site not given here
[2]
  percentage of positively stained cells: 54.2%
[3]
  percentage of positively stained cells: 73.4%

B2: human recombinant neprilysin (NEP) (protein)
chain: YDDGICKSSDCIKSAARLIQNMDATTEPCTDFFKYACGGWLKRNVIPETSSRYGNFDILRDELEVVLKDVLQEPKTEDIVAVQKAKALYRSCINESAIDSRGGEPLLKLLPDIYGWPVATENWEQKYGASWTAEKAIAQLNSKYGKKVLINLFVGTDDKNSVNHVIHIDQPRLGLPSRDYYECTGIYKEACTAYVDFMISVARLIRQEERLPIDENQLALEMNKVMELEKEIANATAKPEDRNDPMLLYNKMTLAQIQNNFSLEINGKPFSWLNFTNEIMSTVNISITNEEDVVVYAPEYLTKLKPILTKYSARDLQNLMSWRFIMDLVSSLSRTYKESRNAFRKALYGTTSETATWRRCANYVNGNMENAVGRLYVEAAFAGESKHVVEDLIAQIREVFIQTLDDLTWMDAETKKRAEEKALAIKERIGYPDDIVSNDNKLNNEYLELNYKEDEYFENIIQNLKFSQSKQLKKLREKVDKDEWISGAAVVNAFYSSGRNQIVFPAGILQPPFFSAQQSNSLNYGGIGMVIGHEITHGFDDNGRNFNKDGDLVDWWTQQSASNFKEQSQCMVYQYGNFSWDLAGGQHLNGINTLGENIADNGGLGQAYRAYQNYIKKNGEEKLLPGLDLNHKQLFFLNFAQVWCGTYRPEYAVNSIKTDVHSPGNFRIIGTLQNSAEFSEAFHCRKNSYMNPEKKCRVW
[4]
  NEP cleavage (in vitro Assay Data): Cleavage of -M-V-K- linker was confirmed in NEP assay.
  NEP-mediated cleavage, MALDI-TOF MS: At 1 nM NEP, substantial (and in the case of GFK complete) cleavage of the test article was observed by MALDI-TOF MS.
[5]
  NEP cleavage (in vitro Assay Data): Cleavage of -G-F-K- linker was confirmed in NEP assay.
  NEP-mediated cleavage, MALDI-TOF MS: At 1 nM NEP, substantial (and in the case of GFK complete) cleavage of the test article was observed by MALDI-TOF MS.
[6]
  NEP cleavage (in vitro Assay Data): Cleavage of -G-F-K- linker was confirmed in NEP assay.
[7]
  NEP cleavage (in vitro Assay Data): Cleavage of -G-F-K- linker was confirmed in NEP assay.
[8]
  NEP cleavage (in vitro Assay Data): Confirmed to be resistant to NEP cleavage.
[9]
  NEP cleavage (in vitro Assay Data): Cleavage of -G-F-K- linker was confirmed in NEP assay.
  NEP-mediated cleavage, NEP titration, MALDI (10 uM PCC): At 10 nM NEP, complete consumption of the starting peptide was observed. At 1 nM and 0.1 nM NEP, partial cleavage was observed. Below 0.1 nM no cleavage was observed.
[10]
  NEP cleavage (in vitro Assay Data): Cleavage of -G-F-K- linker was confirmed in NEP assay.
[11]
  NEP cleavage (in vitro Assay Data): Cleavage of -G-F-K- linker was confirmed in NEP assay.
  NEP-mediated cleavage, NEP titration (10.0 to 0 nM), 37 C 1 h, MALDI-MS: At 10 nM NEP, no intact Indi 7327 remains indicating complete consumption of the peptide. At 1.0 and 0.1 nM NEP, partial cleavage was observed. Below 0.1 nM NEP, no cleavage was observed.
[12]
  NEP cleavage (in vitro Assay Data): Confirmed to be resistant to NEP cleavage.
[13]
  NEP cleavage (in vitro Assay Data): Cleavage of -G-F-K- linker was confirmed in NEP assay.

— patent US20240053349A1
